Each block holds one binder with its values, some of them ahead of it.
Key:
[1] = target: T1, Flag tagged recombinant DLL3 (Adipogen) (Homo sapiens (Human), UniProt Q9NYJ7 27-492); test: flow cytometry, percent of T cells that recognise recombinant DLL3, Donor 116
T1 construct: Bought reagent; also called Flag-DLL3
T1 sequence: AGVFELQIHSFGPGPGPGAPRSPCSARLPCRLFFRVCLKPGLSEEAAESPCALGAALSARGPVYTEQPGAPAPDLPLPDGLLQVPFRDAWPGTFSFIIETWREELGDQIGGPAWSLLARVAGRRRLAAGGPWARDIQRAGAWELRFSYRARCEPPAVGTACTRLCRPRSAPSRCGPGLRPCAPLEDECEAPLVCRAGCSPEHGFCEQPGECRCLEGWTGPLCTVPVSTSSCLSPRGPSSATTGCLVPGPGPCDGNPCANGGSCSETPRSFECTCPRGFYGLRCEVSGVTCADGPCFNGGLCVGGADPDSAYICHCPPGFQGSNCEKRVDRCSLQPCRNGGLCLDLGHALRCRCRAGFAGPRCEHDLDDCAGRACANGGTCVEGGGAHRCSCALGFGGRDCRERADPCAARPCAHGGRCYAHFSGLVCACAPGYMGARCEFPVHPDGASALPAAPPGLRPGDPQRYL
Procedure: (§1) To determine the percentage of T cells that were successfully transduced with DLL3 CAR, T cells were first incubated with 1 ug/ml Flag tagged recombinant DLL3 (Adipogen) in PBS+1% BSA for 20 minutes at 4 C.

[2] = target: T1, Flag tagged recombinant DLL3 (Adipogen); test: flow cytometry, percent of T cells that recognise recombinant DLL3, Donor 117
Procedure: as §1

[3] = target: T1, Flag tagged recombinant DLL3 (Adipogen); test: flow cytometry, primary T cells with the CAR, 1 ug/ml Flag tagged recombinant DLL3, PE anti-Flag
Procedure: as §1

[4] = target: T1, Flag tagged recombinant DLL3 (Adipogen); test: flow cytometry, percent of T cells that recognise recombinant DLL3, Donor 419
Procedure: as §1

[5] = target: T1, Flag tagged recombinant DLL3 (Adipogen); test: flow cytometry, percent of T cells that recognise recombinant DLL3, Donor 503
Procedure: as §1

Transduction efficiency [1]: 49.1% | Transduction efficiency [2]: 47.4% | Rec-DLL3 gate, percent of live CD3+ cells [3]: 49.1%
B1: 5A2 (other)
CAR: QVQLQESGPGLMKPSETLSLTCTVSGGSISSSYWSCIRQPPGKGLEWIGYIYYSGTTNYNPSLKSRVTLSLDTSKNQFSLRLTSVTAADTAVYYCARVAPTGFWFDYWGQGTLVTVSSGGGGSGGGGSGGGGSGGGGSEIVLTQSPGTLSLSPGERATLSCRASQRVSSRYLAWYQQKPGQAPRLLIYGASSRATGIPDRFSGSGSGTDFTLTISRLEPEEFAVYYCQQYGTSPLTFGGGTKVEIKTTTPAPRPPTPAPTIASQPLSLRPEACRPAAGGAVHTRGLDFACDIYIWAPLAGTCGVLLLSLVITKRGRKKLLYIFKQPFMRPVQTTQEEDGCSCRFPEEEEGGCELRVKFSRSADAPAYQQGQNQLYNELNLGRREEYDVLDKRRGRDPEMGGKPRRKNPQEGLYNELQKDKMAEAYSEIGMKGERRRGKGHDGLYQGLSTATKDTYDALHMQALPPR
notes: also called anti-DLL3 CAR with 5A2 scFv, on primary T cells

Transduction efficiency [1]: 46.1% | Transduction efficiency [2]: 47.4% | Rec-DLL3 gate, percent of live CD3+ cells [3]: 46.1%
B2: 2D3 (other)
CAR: QVQLQESGPGLVKPSETLSLTCTVSDNSISNYYWSWIRQPPGKGLEWIAYIYYSGTTNYNPSLKSRVTISLDTSKNQFSLKLSSVTAADTAVYYCARLFNWGFAFDIWGQGTMVTVSSGGGGSGGGGSGGGGSGGGGSEIVMTQSPATLSVSPGERATLSCRASQSVSSNLAWYQQKPGQAPRLLIYGASTRATGIPARFSGSGSGTEFTLTISSLQSEDFAVYYCQQYNNWPLTFGGGTKVEIKTTTPAPRPPTPAPTIASQPLSLRPEACRPAAGGAVHTRGLDFACDIYIWAPLAGTCGVLLLSLVITKRGRKKLLYIFKQPFMRPVQTTQEEDGCSCRFPEEEEGGCELRVKFSRSADAPAYQQGQNQLYNELNLGRREEYDVLDKRRGRDPEMGGKPRRKNPQEGLYNELQKDKMAEAYSEIGMKGERRRGKGHDGLYQGLSTATKDTYDALHMQALPPR
notes: also called anti-DLL3 CAR with 2D3 scFv, on primary T cells

Transduction efficiency [4]: 6.01% | Transduction efficiency [5]: 6.41%
B3: 2404.6H1 (other)
CAR: QVQLVESGGGVVQPGRSLRLSCAASGFTFSSYGMHWVRQTPGKGLEWVAVISYDGNSNYYADSVKGRFTISRDNSKNTLYLQMNSLRAEDTAVYYCARDGATVTSYYYYGMDVWGQGTTVTVSSGGGGSGGGGSGGGGSGGGGSEIVLTQSPGTLSLSPGERATLSCRASQSVSRTYLAWYHQKPGQAPRLLIYGASSRATGISDRFSGSGSGTDFTLTISRLEPEDFAVYYCQQYGTSPITFGQGTRLEIKTTTPAPRPPTPAPTIASQPLSLRPEACRPAAGGAVHTRGLDFACDIYIWAPLAGTCGVLLLSLVITKRGRKKLLYIFKQPFMRPVQTTQEEDGCSCRFPEEEEGGCELRVKFSRSADAPAYQQGQNQLYNELNLGRREEYDVLDKRRGRDPEMGGKPRRKNPQEGLYNELQKDKMAEAYSEIGMKGERRRGKGHDGLYQGLSTATKDTYDALHMQALPPR
notes: also called anti-DLL3 CAR with 2404.6H1 scFv, on primary T cells

Transduction efficiency [4]: 54.8% | Transduction efficiency [5]: 62.8%
B4: 11E4 (other)
CAR: QVQLQESGPGLVKPSETLSLTCTVSGGSISSYYWSWIRQSPGKGLEWIGYVYYSDITNYNPSLKSRVTISVDTSKNQFSLNLNSVTAADTAFYFCARIGVAGFYFDYWGQGTLVTVSSGGGGSGGGGSGGGGSGGGGSEIVLTQSPDTLSLSPGERATLSCRASQSVSRRYLAWYQQKPGQAPRLLIYGASSRATGIPDRFSGSGSGTDFTLTISRLEPEDFEVYYCQQYGTSPITFGQGTRLEIKTTTPAPRPPTPAPTIASQPLSLRPEACRPAAGGAVHTRGLDFACDIYIWAPLAGTCGVLLLSLVITKRGRKKLLYIFKQPFMRPVQTTQEEDGCSCRFPEEEEGGCELRVKFSRSADAPAYQQGQNQLYNELNLGRREEYDVLDKRRGRDPEMGGKPRRKNPQEGLYNELQKDKMAEAYSEIGMKGERRRGKGHDGLYQGLSTATKDTYDALHMQALPPR
notes: also called anti-DLL3 CAR with 11E4 scFv, on primary T cells

Transduction efficiency [4]: 33.4% | Transduction efficiency [5]: 45.1%
B5: 11A8 (other)
CAR: QVQLQQSGPGLVKPSQTLSLTCAISGDSVSSNSATWNWIRQSPSTGLEWLARTYYRSKWYNDYEVSVKSQITINPDTSKNQFSLQLNSVTPEDTAVYYCARGGIVGAPDAFDIWGQGTMVTVSSGGGGSGGGGSGGGGSGGGGSQSVLTQPPSASGTPGQGVTISCSGSSSNIGSNPVNWYQQLPGTAPKLLIYSNNQRPSGVPDRFSDSKSGTSASLAISGLQSEDEADYYCSAWDDWLNGYVFGTGTKVTVLTTTPAPRPPTPAPTIASQPLSLRPEACRPAAGGAVHTRGLDFACDIYIWAPLAGTCGVLLLSLVITKRGRKKLLYIFKQPFMRPVQTTQEEDGCSCRFPEEEEGGCELRVKFSRSADAPAYQQGQNQLYNELNLGRREEYDVLDKRRGRDPEMGGKPRRKNPQEGLYNELQKDKMAEAYSEIGMKGERRRGKGHDGLYQGLSTATKDTYDALHMQALPPR
notes: also called anti-DLL3 CAR with 11A8 scFv, on primary T cells

Transduction efficiency [1]: 37.2% | Transduction efficiency [2]: 37.7% | Rec-DLL3 gate, percent of live CD3+ cells [3]: 37.2%
B6: 2A6.C5 (other)
CAR: QVQLQESGPGLVKPSETLSLTCTVSNVSISSYYWSWIRQPPGKGLEWIGYIYYSGTTNYNPSLKSRVTMSVDTSKNQFSLKLSSVTAADTAVYFCARLSNWGFAFDIWGQGTMVTFSSGGGGSGGGGSGGGGSGGGGSEIVLTQSPGTLSLSPGERATLSCRASQTISSSYLAWYQQKPGQAPRLLIYGASSRATGIPDRFSGSGSGTEFTLTISRLEPEDFAVYYCQQYGWSPITFGQGTRLEIKTTTPAPRPPTPAPTIASQPLSLRPEACRPAAGGAVHTRGLDFACDIYIWAPLAGTCGVLLLSLVITKRGRKKLLYIFKQPFMRPVQTTQEEDGCSCRFPEEEEGGCELRVKFSRSADAPAYQQGQNQLYNELNLGRREEYDVLDKRRGRDPEMGGKPRRKNPQEGLYNELQKDKMAEAYSEIGMKGERRRGKGHDGLYQGLSTATKDTYDALHMQALPPR
notes: also called anti-DLL3 CAR with 2A6.C5 scFv, on primary T cells

Transduction efficiency [1]: 32.4% | Transduction efficiency [2]: 34.8% | Rec-DLL3 gate, percent of live CD3+ cells [3]: 32.4%
B7: 6D8 (other)
CAR: QITLKESGPTLVKPTQTLTLTCTFSGFSLSTRGVGVGWIRQPPGKALEWLALIYWNDDKRYSPSLQTRLTITKDTPKNQVVLTMTNMDPVDTATYYCARSNWGNWYFALWGRGTLVTVSSGGGGSGGGGSGGGGSGGGGSEIVLTQSPATLSLSPGERATLSCRASQSVSSYLAWYQQKPGQAPRLLIYDAFYRATGIPARFSGSGSGTDFTLTISSLEPEDFAVYYCQHRSNWPITFGQGTRLEIKTTTPAPRPPTPAPTIASQPLSLRPEACRPAAGGAVHTRGLDFACDIYIWAPLAGTCGVLLLSLVITKRGRKKLLYIFKQPFMRPVQTTQEEDGCSCRFPEEEEGGCELRVKFSRSADAPAYQQGQNQLYNELNLGRREEYDVLDKRRGRDPEMGGKPRRKNPQEGLYNELQKDKMAEAYSEIGMKGERRRGKGHDGLYQGLSTATKDTYDALHMQALPPR
notes: also called anti-DLL3 CAR with 6D8 scFv, on primary T cells

Transduction efficiency [4]: 6.15% | Transduction efficiency [5]: 7.95%
B8: 3B1 (other)
CAR: QVQLQQSGPGLVKPSQTLSLTCAISGDSVSSNTTAWKWSRQSPSKGLEWLGWTYYRSKWYYDYTVSVKSRITINPDTSKNQFSLQLNSVTPEDTAVYYCARWIFHDAFDIWGQGTMVTVSSGGGGSGGGGSGGGGSGGGGSQSALTQPPSASGTPGQRVTISCSGSSSNIGSNTVNWYQQLPGTAPKLLIYTNNQRPSGVPDRFSGSKSGTSASLAISGLQSEDEADYFCSTWDDSLNGPVFGGGTKLTVLTTTPAPRPPTPAPTIASQPLSLRPEACRPAAGGAVHTRGLDFACDIYIWAPLAGTCGVLLLSLVITKRGRKKLLYIFKQPFMRPVQTTQEEDGCSCRFPEEEEGGCELRVKFSRSADAPAYQQGQNQLYNELNLGRREEYDVLDKRRGRDPEMGGKPRRKNPQEGLYNELQKDKMAEAYSEIGMKGERRRGKGHDGLYQGLSTATKDTYDALHMQALPPR
notes: also called anti-DLL3 CAR with 3B1 scFv, on primary T cells

Source: patent publication US20230287120A1 (ALLOGENE THERAPEUTICS, published 2023)
